To fix the notation:
T1: hiR2-FL-P533-T7 (deletion of P533) (human, UniProt Q6PJF5 1-856)
T1 construct: single residue deletion, not a substitution; on MEF-DKO cells
T1 sequence: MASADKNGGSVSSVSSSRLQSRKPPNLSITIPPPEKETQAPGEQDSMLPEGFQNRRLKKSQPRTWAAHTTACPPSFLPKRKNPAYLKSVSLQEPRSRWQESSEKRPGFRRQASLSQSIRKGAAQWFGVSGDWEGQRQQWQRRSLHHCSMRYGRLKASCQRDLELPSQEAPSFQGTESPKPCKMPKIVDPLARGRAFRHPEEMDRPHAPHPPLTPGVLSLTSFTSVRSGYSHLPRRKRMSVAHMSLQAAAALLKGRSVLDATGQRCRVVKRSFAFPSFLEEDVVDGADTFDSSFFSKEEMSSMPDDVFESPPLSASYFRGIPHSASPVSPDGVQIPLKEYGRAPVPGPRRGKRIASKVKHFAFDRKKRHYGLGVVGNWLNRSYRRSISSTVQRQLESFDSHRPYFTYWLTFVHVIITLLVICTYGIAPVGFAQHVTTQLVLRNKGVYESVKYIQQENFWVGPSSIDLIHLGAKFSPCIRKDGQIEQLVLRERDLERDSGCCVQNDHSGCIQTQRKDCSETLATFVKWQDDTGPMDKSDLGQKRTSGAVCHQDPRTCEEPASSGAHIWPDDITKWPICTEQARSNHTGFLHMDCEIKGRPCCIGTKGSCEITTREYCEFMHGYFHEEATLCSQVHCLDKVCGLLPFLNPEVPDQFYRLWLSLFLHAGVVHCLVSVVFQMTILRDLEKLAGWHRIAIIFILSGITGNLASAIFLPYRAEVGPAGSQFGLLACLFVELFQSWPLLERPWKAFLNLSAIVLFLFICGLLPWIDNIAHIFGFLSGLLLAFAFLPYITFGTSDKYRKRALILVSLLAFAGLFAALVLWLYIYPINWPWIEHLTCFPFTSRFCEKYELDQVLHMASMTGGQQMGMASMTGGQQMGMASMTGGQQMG

T2: miR2-FL-WT-T7 (mouse, UniProt Q80WQ6 1-827)
T2 construct: on MEF-DKO cells
T2 sequence: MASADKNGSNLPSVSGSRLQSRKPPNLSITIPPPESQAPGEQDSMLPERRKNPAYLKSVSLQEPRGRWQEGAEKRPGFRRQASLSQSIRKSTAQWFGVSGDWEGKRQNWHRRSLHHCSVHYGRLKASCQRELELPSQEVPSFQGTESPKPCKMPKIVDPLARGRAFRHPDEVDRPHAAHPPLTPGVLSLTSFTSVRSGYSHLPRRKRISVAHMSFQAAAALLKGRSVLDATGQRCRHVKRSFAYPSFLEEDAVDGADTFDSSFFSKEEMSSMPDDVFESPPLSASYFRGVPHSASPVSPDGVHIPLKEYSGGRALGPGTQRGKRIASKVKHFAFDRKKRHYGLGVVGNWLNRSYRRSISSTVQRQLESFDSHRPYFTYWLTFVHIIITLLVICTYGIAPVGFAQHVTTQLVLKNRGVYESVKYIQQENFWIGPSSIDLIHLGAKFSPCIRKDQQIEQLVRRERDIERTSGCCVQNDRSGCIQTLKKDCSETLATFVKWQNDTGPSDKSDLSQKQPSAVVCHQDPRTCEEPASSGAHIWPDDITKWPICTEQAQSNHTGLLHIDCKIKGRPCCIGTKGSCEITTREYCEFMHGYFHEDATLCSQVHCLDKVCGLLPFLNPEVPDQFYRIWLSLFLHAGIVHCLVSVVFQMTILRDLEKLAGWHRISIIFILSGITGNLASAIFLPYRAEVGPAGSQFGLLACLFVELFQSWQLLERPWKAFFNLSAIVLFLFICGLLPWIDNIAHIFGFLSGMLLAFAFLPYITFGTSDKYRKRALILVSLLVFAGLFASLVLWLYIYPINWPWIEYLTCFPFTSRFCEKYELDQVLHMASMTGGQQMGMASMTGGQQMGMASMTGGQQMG

B1: antibody 16 (antibody, V domains shown)
VH: QVTLKESGPGILQPSQTLSLTCSFSGFSLSTFALGVGWIRQPSGRGLEWLAHIWWDDDKYYNPALKSRLTISKDTSKNHVFLKIANVDTADTATYYCARITTYYYGMDYWGQGTSVTVSS
VL: DIVLSQSPATLSVTPGDSVSLFCRASQSIGNHLHWYQQESHASPRLLIKYASQSISGIPSRFSGSGSGTDFTLSINSVETEDFGMYFCQQSYNWPLTFGAGTKLELK
notes: mouse IgG, kappa light chain; also called clone #16; purified antibody 16
B2: antibody 3 (antibody, V domains shown)
VH: QVTLKESGPGILQPSQTLSLTCSFSGFSLTTFAMGIGWVRQPSGKGLEWLAHIWWDGEKYNNPVLKSRLTISKDTSKNQVFLRIANVDTPDTATYYCARISSIYYIIDNWGQGTSVTVSS
VL: B1 VL with S5T, D17H, F22S, G30S, H32N, Q38K, E39K, A42E, A51V
notes: mouse IgG, kappa light chain; also called clone #3; purified antibody 3
B3: antibody 5 (antibody, V domains shown)
VH: QVTLKESGPGILQPSQTLSLTCSFSGFSLSTFGMGVGWIRQPSGKGLEWLAHIWWDDEKYYNSALKSRLTISKATSKNQAFLKIANVDTADTATYYCARISNYGSNYWYFNVWGTGTTVTVSS
VL: QVVLTQSPALMSASPGEKVTMTCSAGSSVSCMYWYQQKPGSSPRVLIYDTSNLASGVPARFTGSGSGTSYSLTISRMEAEDAASYYCQQWNSYPLTFGAGTKLELK
notes: mouse IgG, kappa light chain; also called clone #5; purified antibody 5
B4: antibody 42 (antibody, V domains shown)
VH: B3 VH with F24L, M34R, S63P, A74D, A80V, K83R, S101Q, N111D
VL: LIVLTQSPAIMSASPGEKVTMTCGATSRISYMFWYQQKPGSSPRVLIYDTSNLASGVPVRFSGSGSGTSYSLTISRVEAEDVATYYCQQWNSYPLTFGAGTKLELK
notes: mouse IgG, kappa light chain; also called clone #42; purified antibody 42
B5: antibody 43 (antibody, V domains shown)
VH: B3 VH with T3A, P42S, H52N, E58D, S63P, A74D, T75A, S101G, N111D
VL: B4 VL with L1Q, K18R, G24S, T26N, F33Y, V45L, V77M, V82A, Y86N, N91S
notes: mouse IgG, kappa light chain; also called clone #43; purified antibody 43
B6: antibody 44 (antibody, V domains shown)
VH: B3 VH with G44E, E58D, S63P, A74D, A80I, A85T, D91E, A98S, S101G, N111D
VL: QIVLTQSPAVMSASPGEKVTMTCTASSSVYYMYWYQQTPGSSPRLLIYDTSNLASGVPVRFSGSGSGTSYSLTISRMEAEDAATYYCQQWNTYPLTFGAGTKLELK
notes: mouse IgG, kappa light chain; also called clone #44; purified antibody 44
B7: antibody 22 (antibody, V domains shown)
VH: B3 VH with A80V
VL: B3 VL with C31Y, S84T
notes: mouse IgG, kappa light chain; also called clone #22; purified antibody 22
B8: antibody 34 (antibody, V domains shown)
VH: QVTLKESGPGILQPSQTLSLTCSFSGFSLSTFSLGVGWIRQSSGKGLEWLAHIWWDDEKYYNPALKSRLTISKDTSKNQVFLKIANVDAADTATYYCARAYYSKSYYALDYWGQGTSVTVSS
VL: DIQMTQSPSSLSASLGERVSLTCRASQEISGYLSWLQQKPDGTIKRLIYAASTLDSGVPKRFSGSRSGSDYSLAISSLESEDFADYYCLQYANFPFTFGSGTKLEIK
notes: mouse IgG, kappa light chain; also called clone #34; purified antibody 34
B9: antibody 48 (antibody, V domains shown)
VH: QVQLQQSGTELVRPGTSVKVSCKASGYAFTNYLIEWVKQRPGQGLEWIGVINPGSGFTKYNEKFKGKATLTADKSSSTVYMHLSSLTSEDSAVYFCARGLYRAMDYWGQGTSVTVSS
VL: DIQMTQSPASQSASLGESVTITCLASQTIATWLAWYQQKPGKSPQLLIYGATTLADGVPSRFSGGGSGTKFSFKISSLQAEDFVSYYCQQLYSTPYTFGGGTKLEIK
notes: mouse IgG, kappa light chain; also called clone #48; purified antibody 48
B10: antibody 50 (antibody, V domains shown)
VH: B9 VH with T9A, T16A, T30S, V79A, H82Q
VL: B9 VL with A30G, G50A, T52A, T53S, S85N, L91I
notes: mouse IgG, kappa light chain; also called clone #50; purified antibody 50

The values below come from patent US20240287172A1 (SCIRHOM, published 2024).

Changes are numbered by the printed parent chain. A value given as a limit tells only on which side of the number the result lay.

For one assay, the target named is T1, hiR2-FL-P533-T7 (deletion of P533). Description: FACS, MEF-DKO cells, 3 µg/ml. The text has this:
(§1) In brief, immortalized MEF-DKO-hiR2-FL-WT-T7 cells, MEF-DKO-miR2-FL-WT-T7 cells and MEF-DKO-hiR2-FL-R441K-T7, MEF-DKO-hiR2-FL-K443R-T7, MEF-DKO-hiR2-FL-V459I-T7, MEF-DKO-hiR2-FL-G481Q-T7, MEF-DKO-hiR2-FL-L488R-T7, MEF-DKO-hiR2-FL-L493I-T7, MEF-DKO-hiR2-FL-D496T-T7, MEF-DKO-hiR2-FL-H505R-T7, MEF-DKO-hiR2-FL-Q512L-T7, MEF-DKO-hiR2-FL- R513K-T7, MEF-DKO-hiR2-FL-D528N-T7, MEF-DKO-hiR2-FL-P533-T7, MEF-DKO-hiR2-FL-M534S-T7, MEF-DKO-hiR2-FL-G540S-T7, MEF-DKO-hiR2-FL-R543Q-T7, MEF-DKO-hiR2-FL-T544P-T7, MEF-DKO-hiR2-FL-G546A-T7, MEF-DKO-hiR2-FL-A547V-T7, MEF-DKO-hiR2-FL-R582Q-T7, MEF-DKO-hiR2-FL-F588L-T7, MEF-DKO-hiR2-FL-M591I-T7, MEF-DKO-hiR2-FL-E594K-T7, MEF-DKO-hiR2-FL-E626D-T7, MEF-DKO-hiR2-FL-L657I-T7, and MEF-DKO-hiR2-FL-H835Y-T7 cells were harvested with 10 mM EDTA in PBS, washed and resuspended in FACS buffer (PBS, 3% FBS, 0.05% sodium azide), and seeded in Nunc U-bottom 96-well plates (Thermo Fisher Scientific, USA) at approximately 3×10⁵ cells per well.
(§2) To pellet cells and remove supernatants, the plates were centrifuged at 1,500 rpm and 4° C. for 3 minutes. For primary staining, cells were resuspended in 100 μl per well of either FACS buffer alone (controls) or the purified antibodies 3, 5, 16, 22, 34, 42, 43, 44, 48, and 50 of the invention at 3 μg/ml FACS buffer and incubated on ice for 1 hour. Afterwards, plates were centrifuged at 1,500 rpm and 4° C. for 3 minutes and washed twice with 200 μl per well of FACS buffer. For secondary staining, cells were spun down and resuspended in 100 μl per well of PE-conjugated goat anti-mouse IgG F(ab′)2 detection fragment (Dianova, Germany) diluted 1:100 in FACS buffer. Protected from light, the cell suspensions were incubated on ice for 1 hour. Plates were then centrifuged at 1,500 rpm and 4° C. for 3 minutes and washed three times with 200 μl per well of FACS buffer. Finally, cells were resuspended in 150 μl per well of FACS buffer and analyzed using a BD Accuri™ C6 Plus flow cytometer (Becton Dickinson, Germany).
For orientation: In flow cytometry, cells or beads pass a laser one at a time.
On to B1, for which the “loss of binding vs wild type” value is at least 95%.

B2: the “loss of binding vs wild type” value is at least 95%.

Take B3: the “loss of binding vs wild type” value was at least 95%. As to B4, the “loss of binding vs wild type” value was at least 95%.

Regarding B5, the “loss of binding vs wild type” value was at least 95%.

Regarding B6, the “loss of binding vs wild type” value is at least 95%.

On to B7, for which the “loss of binding vs wild type” value is at least 95%. With B8, the “loss of binding vs wild type” value is at least 95%.

For another assay, the target named is T2, miR2-FL-WT-T7. Description: FACS, MEF-DKO cells, 3 µg/ml.
Source text: as §1, §2
On to B1, for which the “loss of binding vs wild type” value was at least 95%. Still for that read-out and setting: next, B2: at least 95%; B3: at least 95%; B4: at least 95%. Still for that read-out and setting: next, B5: at least 95%.

Take B6: the “loss of binding vs wild type” value was at least 95%. In the case of B7, the “loss of binding vs wild type” value is at least 95%. Turning to B8, the “loss of binding vs wild type” value was at least 95%. On the same count and under the same terms, next, B9: at least 60%; B10: at least 95%.
